Reference: patent US20240287139

B1: MtbGyrase with MtbGyrAP353L (protein)
chain 1: TDTTLPPDDSLDRIEPVDIEQEMQRSYIDYAMSVIVGRALPEVRDGLKPVHRRVLYAMFDSGFRPDRSHAKSARSVAETMGNYHPHGDASIYDSLVRMAQPWSLRYPLVDGQGNFGSPGNDPPAAMRYTEARLTPLAMEMLREIDEETVDFIPNYDGRVQEPTVLPSRFPNLLANGSGGIAVGMATNIPPHNLRELADAVFWALENHDADEEETLAAVMGRVKGPDFPTAGLIVGSQGTADAYKTGRGSIRMRGVVEVEEDSRGRTSLVITELPYQVNHDNFITSIAEQVRDGKLAGISNIEDQSSDRVGLRIVIEIKRDAVAKVVINNLYKHTQLQTSFGANMLAIVDGVLRTLRLDQLIRYYVDHQLDVIVRRTTYRLRKANERAHILRGLVKALDALDEVIALIRASETVDIARAGLIELLDIDEIQAQAILDMQLRRLAALERQRIIDDLAKIEAEIADLEDILAKPERQRGIVRDELAEIVDRHGDDRRTRIIAADGDVSDEDLIAREDVVVTITETGYAKRTKTDLYRSQKRGGKGVQGAGLKQDDIVAHFFVCSTHDLILFFTTQGRVYRAKAYDLPEASRTARGQHVANLLAFQPEERIAQVIQIRGYTDAPYLVLATRNGLVKKSKLTDFDSNRSGGIVAVNLRDNDELVGAVLCSAGDDLLLVSANGQSIRFSATDEALRPMGRATSGVQGMRFNIDDRLLSLNVVREGTYLLVATSGGYAKRTAIEEYPVQGRGGKGVLTVMYDRRRGRLVGALIVDDDSELYAVTSGGGVIRTAARQVRKAGRQTKGVRLMNLGEGDTLLAIARNAEESGDDNAVDANGADQTGN
chain 2: MAAQKKKAQDEYGAASITILEGLEAVRKRPGMYIGSTGERGLHHLIWEVVDNAVDEAMAGYATTVNVVLLEDGGVEVADDGRGIPVATHASGIPTVDVVMTQLHAGGKFDSDAYAISGGLHGVGVSVVNALSTRLEVEIKRDGYEWSQVYEKSEPLGLKQGAPTKKTGSTVRFWADPAVFETTEYDFETVARRLQEMAFLNKGLTINLTDERVTQDEVVDEVVSDVAEAPKSASERAAESTAPHKVKSRTFHYPGGLVDFVKHINRTKNAIHSSIVDFSGKGTGHEVEIAMQWNAGYSESVHTFANTINTHEGGTHEEGFRSALTSVVNKYAKDRKLLKDKDPNLTGDDIREGLAAVISVKVSEPQFEGQTKTKLGNTEVKSFVQKVCNEQLTHWFEANPTDAKVVVNKAVSSAQARIAARKARELVRRKSATDIGGLPGKLADCRSTDPRKSELYVVEGDSAGGSAKSGRDSMFQAILPLRGKIINVEKARIDRVLKNTEVQAIITALGTGIHDEFDIGKLRYHKIVLMADADVDGQHISTLLLTLLFRFMRPLIENGHVFLAQPPLYKLKWQRSDPEFAYSDRERDGLLEAGLKAGKKINKEDGIQRYKGLGEMDAKELWETTMDPSVRVLRQVTLDDAAAADELFSILMGEDVDARRSFITRNAKDVRFLDV
B2: MtbGyrase with MtbGyrAI36F (protein)
chain 1: TDTTLPPDDSLDRIEPVDIEQEMQRSYIDYAMSVFVGRALPEVRDGLKPVHRRVLYAMFDSGFRPDRSHAKSARSVAETMGNYHPHGDASIYDSLVRMAQPWSLRYPLVDGQGNFGSPGNDPPAAMRYTEARLTPLAMEMLREIDEETVDFIPNYDGRVQEPTVLPSRFPNLLANGSGGIAVGMATNIPPHNLRELADAVFWALENHDADEEETLAAVMGRVKGPDFPTAGLIVGSQGTADAYKTGRGSIRMRGVVEVEEDSRGRTSLVITELPYQVNHDNFITSIAEQVRDGKLAGISNIEDQSSDRVGLRIVIEIKRDAVAKVVINNLYKHTQLQTSFGANMLAIVDGVPRTLRLDQLIRYYVDHQLDVIVRRTTYRLRKANERAHILRGLVKALDALDEVIALIRASETVDIARAGLIELLDIDEIQAQAILDMQLRRLAALERQRIIDDLAKIEAEIADLEDILAKPERQRGIVRDELAEIVDRHGDDRRTRIIAADGDVSDEDLIAREDVVVTITETGYAKRTKTDLYRSQKRGGKGVQGAGLKQDDIVAHFFVCSTHDLILFFTTQGRVYRAKAYDLPEASRTARGQHVANLLAFQPEERIAQVIQIRGYTDAPYLVLATRNGLVKKSKLTDFDSNRSGGIVAVNLRDNDELVGAVLCSAGDDLLLVSANGQSIRFSATDEALRPMGRATSGVQGMRFNIDDRLLSLNVVREGTYLLVATSGGYAKRTAIEEYPVQGRGGKGVLTVMYDRRRGRLVGALIVDDDSELYAVTSGGGVIRTAARQVRKAGRQTKGVRLMNLGEGDTLLAIARNAEESGDDNAVDANGADQTGN
chain 2: MAAQKKKAQDEYGAASITILEGLEAVRKRPGMYIGSTGERGLHHLIWEVVDNAVDEAMAGYATTVNVVLLEDGGVEVADDGRGIPVATHASGIPTVDVVMTQLHAGGKFDSDAYAISGGLHGVGVSVVNALSTRLEVEIKRDGYEWSQVYEKSEPLGLKQGAPTKKTGSTVRFWADPAVFETTEYDFETVARRLQEMAFLNKGLTINLTDERVTQDEVVDEVVSDVAEAPKSASERAAESTAPHKVKSRTFHYPGGLVDFVKHINRTKNAIHSSIVDFSGKGTGHEVEIAMQWNAGYSESVHTFANTINTHEGGTHEEGFRSALTSVVNKYAKDRKLLKDKDPNLTGDDIREGLAAVISVKVSEPQFEGQTKTKLGNTEVKSFVQKVCNEQLTHWFEANPTDAKVVVNKAVSSAQARIAARKARELVRRKSATDIGGLPGKLADCRSTDPRKSELYVVEGDSAGGSAKSGRDSMFQAILPLRGKIINVEKARIDRVLKNTEVQAIITALGTGIHDEFDIGKLRYHKIVLMADADVDGQHISTLLLTLLFRFMRPLIENGHVFLAQPPLYKLKWQRSDPEFAYSDRERDGLLEAGLKAGKKINKEDGIQRYKGLGEMDAKELWETTMDPSVRVLRQVTLDDAAAADELFSILMGEDVDARRSFITRNAKDVRFLDV
B3: MtbGyrase with MtbGyrAM33A (protein)
chain 1: TDTTLPPDDSLDRIEPVDIEQEMQRSYIDYAASVIVGRALPEVRDGLKPVHRRVLYAMFDSGFRPDRSHAKSARSVAETMGNYHPHGDASIYDSLVRMAQPWSLRYPLVDGQGNFGSPGNDPPAAMRYTEARLTPLAMEMLREIDEETVDFIPNYDGRVQEPTVLPSRFPNLLANGSGGIAVGMATNIPPHNLRELADAVFWALENHDADEEETLAAVMGRVKGPDFPTAGLIVGSQGTADAYKTGRGSIRMRGVVEVEEDSRGRTSLVITELPYQVNHDNFITSIAEQVRDGKLAGISNIEDQSSDRVGLRIVIEIKRDAVAKVVINNLYKHTQLQTSFGANMLAIVDGVPRTLRLDQLIRYYVDHQLDVIVRRTTYRLRKANERAHILRGLVKALDALDEVIALIRASETVDIARAGLIELLDIDEIQAQAILDMQLRRLAALERQRIIDDLAKIEAEIADLEDILAKPERQRGIVRDELAEIVDRHGDDRRTRIIAADGDVSDEDLIAREDVVVTITETGYAKRTKTDLYRSQKRGGKGVQGAGLKQDDIVAHFFVCSTHDLILFFTTQGRVYRAKAYDLPEASRTARGQHVANLLAFQPEERIAQVIQIRGYTDAPYLVLATRNGLVKKSKLTDFDSNRSGGIVAVNLRDNDELVGAVLCSAGDDLLLVSANGQSIRFSATDEALRPMGRATSGVQGMRFNIDDRLLSLNVVREGTYLLVATSGGYAKRTAIEEYPVQGRGGKGVLTVMYDRRRGRLVGALIVDDDSELYAVTSGGGVIRTAARQVRKAGRQTKGVRLMNLGEGDTLLAIARNAEESGDDNAVDANGADQTGN
chain 2: MAAQKKKAQDEYGAASITILEGLEAVRKRPGMYIGSTGERGLHHLIWEVVDNAVDEAMAGYATTVNVVLLEDGGVEVADDGRGIPVATHASGIPTVDVVMTQLHAGGKFDSDAYAISGGLHGVGVSVVNALSTRLEVEIKRDGYEWSQVYEKSEPLGLKQGAPTKKTGSTVRFWADPAVFETTEYDFETVARRLQEMAFLNKGLTINLTDERVTQDEVVDEVVSDVAEAPKSASERAAESTAPHKVKSRTFHYPGGLVDFVKHINRTKNAIHSSIVDFSGKGTGHEVEIAMQWNAGYSESVHTFANTINTHEGGTHEEGFRSALTSVVNKYAKDRKLLKDKDPNLTGDDIREGLAAVISVKVSEPQFEGQTKTKLGNTEVKSFVQKVCNEQLTHWFEANPTDAKVVVNKAVSSAQARIAARKARELVRRKSATDIGGLPGKLADCRSTDPRKSELYVVEGDSAGGSAKSGRDSMFQAILPLRGKIINVEKARIDRVLKNTEVQAIITALGTGIHDEFDIGKLRYHKIVLMADADVDGQHISTLLLTLLFRFMRPLIENGHVFLAQPPLYKLKWQRSDPEFAYSDRERDGLLEAGLKAGKKINKEDGIQRYKGLGEMDAKELWETTMDPSVRVLRQVTLDDAAAADELFSILMGEDVDARRSFITRNAKDVRFLDV
B4: MtbGyrase with MtbGyrAA32V (protein)
chain 1: TDTTLPPDDSLDRIEPVDIEQEMQRSYIDYVMSVIVGRALPEVRDGLKPVHRRVLYAMFDSGFRPDRSHAKSARSVAETMGNYHPHGDASIYDSLVRMAQPWSLRYPLVDGQGNFGSPGNDPPAAMRYTEARLTPLAMEMLREIDEETVDFIPNYDGRVQEPTVLPSRFPNLLANGSGGIAVGMATNIPPHNLRELADAVFWALENHDADEEETLAAVMGRVKGPDFPTAGLIVGSQGTADAYKTGRGSIRMRGVVEVEEDSRGRTSLVITELPYQVNHDNFITSIAEQVRDGKLAGISNIEDQSSDRVGLRIVIEIKRDAVAKVVINNLYKHTQLQTSFGANMLAIVDGVPRTLRLDQLIRYYVDHQLDVIVRRTTYRLRKANERAHILRGLVKALDALDEVIALIRASETVDIARAGLIELLDIDEIQAQAILDMQLRRLAALERQRIIDDLAKIEAEIADLEDILAKPERQRGIVRDELAEIVDRHGDDRRTRIIAADGDVSDEDLIAREDVVVTITETGYAKRTKTDLYRSQKRGGKGVQGAGLKQDDIVAHFFVCSTHDLILFFTTQGRVYRAKAYDLPEASRTARGQHVANLLAFQPEERIAQVIQIRGYTDAPYLVLATRNGLVKKSKLTDFDSNRSGGIVAVNLRDNDELVGAVLCSAGDDLLLVSANGQSIRFSATDEALRPMGRATSGVQGMRFNIDDRLLSLNVVREGTYLLVATSGGYAKRTAIEEYPVQGRGGKGVLTVMYDRRRGRLVGALIVDDDSELYAVTSGGGVIRTAARQVRKAGRQTKGVRLMNLGEGDTLLAIARNAEESGDDNAVDANGADQTGN
chain 2: MAAQKKKAQDEYGAASITILEGLEAVRKRPGMYIGSTGERGLHHLIWEVVDNAVDEAMAGYATTVNVVLLEDGGVEVADDGRGIPVATHASGIPTVDVVMTQLHAGGKFDSDAYAISGGLHGVGVSVVNALSTRLEVEIKRDGYEWSQVYEKSEPLGLKQGAPTKKTGSTVRFWADPAVFETTEYDFETVARRLQEMAFLNKGLTINLTDERVTQDEVVDEVVSDVAEAPKSASERAAESTAPHKVKSRTFHYPGGLVDFVKHINRTKNAIHSSIVDFSGKGTGHEVEIAMQWNAGYSESVHTFANTINTHEGGTHEEGFRSALTSVVNKYAKDRKLLKDKDPNLTGDDIREGLAAVISVKVSEPQFEGQTKTKLGNTEVKSFVQKVCNEQLTHWFEANPTDAKVVVNKAVSSAQARIAARKARELVRRKSATDIGGLPGKLADCRSTDPRKSELYVVEGDSAGGSAKSGRDSMFQAILPLRGKIINVEKARIDRVLKNTEVQAIITALGTGIHDEFDIGKLRYHKIVLMADADVDGQHISTLLLTLLFRFMRPLIENGHVFLAQPPLYKLKWQRSDPEFAYSDRERDGLLEAGLKAGKKINKEDGIQRYKGLGEMDAKELWETTMDPSVRVLRQVTLDDAAAADELFSILMGEDVDARRSFITRNAKDVRFLDV

Each protein was assayed against the compound of Formula IV.
In the case of B1, the “compound-induced DNA cleavage compared to wildtype MtbGyrase” value is reported as “reduced cleavage (5 to 100-fold)”.
B2 was tested, and the “compound-induced DNA cleavage compared to wildtype MtbGyrase” value was “reduced cleavage (5 to 100-fold)”.
B3 was tested, and the “compound-induced DNA cleavage compared to wildtype MtbGyrase” value was “reduced cleavage (5 to 100-fold)”.
With B4 the “compound-induced DNA cleavage compared to wildtype MtbGyrase” value was “reduced cleavage (5 to 100-fold)”.
